Where a chain is given by its changes, count along the chain named. Where “and” joins values, the source holds several entries; their conditions need not be identical. Equal entries are not always repeated. Values belong to the binder of their own block, whether it stands above or below them. *1 amine or outer side, *2 acyl side, *3 side chain or, on linkers, in order; H or OH if unused. Bridges are numbered along the chain shown (N, C = ends). Where no end group is shown, it is not given here. Lys(Aoa) = NOCC(=O)NCCCC[C@H](N[*:1])C(=O)[*:2]
Tests used:
[1] = molecular target: T1, Cynomolgus monkey LRP-8 expressed on HEK293 cells (cynomolgus monkey); experiment: cell-based binding assay, cynoLRP8
T1 construct: whole, on cells; also called cyno LRP-8; cLRP-8

[2] = molecular target: T2, Human LRP-8 (isoform 3) expressed on cells (human, UniProt Q14114 33-963); experiment: cell-based binding assay, hLRP8
T2 construct: also called hLRP-8; huLRP-8

[3] = molecular target: T2, Human LRP-8 (isoform 3) expressed on …; experiment: cell-based MSD-ECL binding on cells overexpressing human LRP-8 variant 3 (hLRP8 assay)
Procedure: (§1) A cell-based ECL-MSD binding assay was used to determine antibody affinity. HEK293 cells overexpressing human, monkey or mouse LRP-8 were added onto MSD 96-well plate (MSD Cat# L15XB-3/L11XB-3) and incubated at 37° C. for one hour. Cells were blocked using 15% FBS (Hyclone, Thermo Scientific Cat# SH300700.03) at RT for 30 minutes with mild agitation. Plates were washed with DPBS three times and Abs or DVD-Ig binding proteins were added to the well. After incubation at RT for one hour, plates were washed with DPBS and goat anti-human or anti-mouse Sulfo TAG (MSD Cat#R32AJ-1) was added. Plates were incubated at RT for one hour, washed with DPBS and immersed in MSD read buffer (MSD Cat#R92TD-2) before reading on a MSD SECTOR Imager 6000. EC50 values were obtained using Xlfit4 software system.

[4] = molecular target: T1, Cynomolgus monkey LRP-8 expressed on …; experiment: cell-based MSD-ECL binding on cells overexpressing cyno LRP-8 variant 1 (cynoLRP8 assay)
Procedure: as §1

[5] = molecular target: T3, CR1 cyclic peptide of human LRP-8 (human, disulfide 1-13); experiment: ELISA using CR1 peptide
T3 construct: also called CR1 peptide; conjugated human LRP-8 CR1 peptide
T3 peptide: CEKDQFQSRNERCIPSVWR-{Lys(Aoa)-NH2}

[6] = molecular target: T1, Cynomolgus monkey LRP-8 expressed on …; experiment: FACS, cyno LRP8 cells
[7] = molecular target: T2, Human LRP-8 (isoform 3) expressed on …; experiment: cell-based or functional assay
[8] = molecular target: T2, Human LRP-8 (isoform 3) expressed on …; experiment: cell-based ECL-MSD, 10 ug/ml Ab, human_LRP-8_HEK293
Procedure: as §1

[9] = molecular target: T2, Human LRP-8 (isoform 3) expressed on …; experiment: huLRP-8 cell-based binding
[10] = molecular target: T1, Cynomolgus monkey LRP-8 expressed on …; experiment: cell-based ECL-MSD, 10 ug/ml Ab, cyno-LRP-8-HEK293
Procedure: as §1

[11] = molecular target: T1, Cynomolgus monkey LRP-8 expressed on …; experiment: cell-based binding on CYNO LRP8-HEK293, supernatant 1:125
[12] = molecular target: T1, Cynomolgus monkey LRP-8 expressed on …; experiment: cell-based binding on CYNO LRP8-HEK293, supernatant 1:5
[13] = molecular target: T1, Cynomolgus monkey LRP-8 expressed on …; experiment: cell-based binding on CYNO LRP8-HEK293, supernatant 1:25

T2 sequence (Q14114 other isoform, or with tags, fused parts or gaps limits assumed): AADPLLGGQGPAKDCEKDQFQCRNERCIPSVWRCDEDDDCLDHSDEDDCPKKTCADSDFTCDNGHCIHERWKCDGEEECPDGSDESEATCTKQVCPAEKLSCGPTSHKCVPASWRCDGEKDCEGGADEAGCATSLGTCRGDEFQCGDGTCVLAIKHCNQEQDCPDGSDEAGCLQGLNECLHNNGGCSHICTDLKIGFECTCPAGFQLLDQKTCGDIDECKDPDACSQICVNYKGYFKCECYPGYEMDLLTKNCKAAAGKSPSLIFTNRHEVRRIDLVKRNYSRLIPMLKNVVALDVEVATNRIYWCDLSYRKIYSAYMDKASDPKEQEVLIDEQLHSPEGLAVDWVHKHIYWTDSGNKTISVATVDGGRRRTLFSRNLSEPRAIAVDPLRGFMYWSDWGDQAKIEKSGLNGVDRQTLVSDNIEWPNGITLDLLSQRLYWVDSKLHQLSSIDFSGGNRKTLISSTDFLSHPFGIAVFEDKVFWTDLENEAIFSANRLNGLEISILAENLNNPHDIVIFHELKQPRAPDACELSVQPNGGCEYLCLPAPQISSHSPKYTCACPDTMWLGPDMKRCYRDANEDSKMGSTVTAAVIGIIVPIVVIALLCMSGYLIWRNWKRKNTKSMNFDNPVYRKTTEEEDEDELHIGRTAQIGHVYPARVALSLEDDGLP

B1: anti-LRP-8 BGK-2C8.8C antibody (antibody, V domains shown)
VH: EVQLVESGGGLVQPGRSLKLSCAASGFTVSDYYMAWVRQAPKKGLEWVASISYEGSSTYYGDSVKGRFTISRDNAKSILYLQMNSLRSEDTATYYCARPLRYYGYNYRFAYWGQGTLVTVSS
VL: DIQMSQSPPVLSASVGDRVTLSCKASQNIHKNLDWYQQKHGEAPKLLIYYTDNLQTGIPSRFSGSGSGTDYTLTISSLQPEDVATYYCYQYNSGPTFGAGTKLELQ
EC50 [1]: 820 pM
EC50 [2]: 2620 pM
EC50 [3]: 0.55 µg/mL and 2.75 nM
EC50 [4]: 0.0881 µg/mL and 0.44 nM

B2: anti-LRP-8 BGK-2H4 chimeric antibody (CL-105945) (antibody, V domains shown)
VH: EVQLVESGGGLVQPGRSMKLSCAASGFTFSSFPMAWVRQAPTKGLEWVATVSTRGGHTYYRDSVKGRFTISRDNAKNTLYLQMNSLRSEDTATYYCIREGTSLFAYWGQGTLVTVSS
VL: DIQMTQSPPSLSASLGETVSIECLASEDISNYLAWYQQKPGKSPQLLIYYANSLEDGVPSRFSGSGSGTQYSLKISNMQPEDEGVYHCQQGYNYPYTFGAGTKLELK
EC50 [1]: 1080 pM
EC50 [2]: 210 pM

B3: anti-LRP-8 BGK-9D10-2 antibody (CL-105967) (antibody, V domains shown)
VH: EVQLVESGGGLVQSGRSLKLSCAASGFTFSNYYMAWVRQAPKKGLEWVATITTSGSRSFYPDSVKGRFTISRDNAKSSLYLQINSLKSEDTATYYCARRGPLGYFDHWGRGVMVTVSS
VL: DIQMTQSPPSLPASLGDKVTITCQASQNINKYIAWYQQKPGKAPRLLIRFTSTLESDTPSRFSGSGSGRDYSFSISNVESEDFASYYCLHYDNLPPWTFGGGTKLELK
notes: also called BGT-9D10-2
EC50 [1]: 640 pM
EC50 [2]: 2290 pM
EC50 [3]: 0.108 µg/mL and 0.54 nM
EC50 [4]: 0.12 µg/mL and 0.6 nM

B4: anti-LRP-8 antibody CL-135325 (antibody, V domains shown)
VH: EVQLVQSGGGLVQPGGSLRLSCAASGFTFSIYAMSWVRQAPGKGLEWVSVISCSAGSTYYADSVKGRFTISRDNSKNTLYLQMNSLRAEDTAVYYCARHSVHEEFPFDVWGQGTLVTVSS
VL: DIQMTQSPSSLSASVGDRVTITCRASQSIGSYLNWYQQKPGKAPKLLIYAASSLQSGVPSRFSGSGSGTDFTLTISSLQPEDFATYYCQQSYIPPLTFGGGTKVEIK
OD450 [5]: 0.17 OD450
FACS (ratio +/-) [6]: 16.5 ratio

B6: anti-LRP-8 BGK-7A11 chimeric antibody (CL-105959) (antibody, V domains shown)
VH: QVTLKESGPGILQPSQTLSLTCTFSGFSLSTYGMGVGWIRQPAGTGLEWLANIWWDDDKYYNPSLKNRLTISKDTSNNQVFLKITNVDTADTATYYCARTTKPYYFDYWGQGVMVTVSS
VL: HFVLAQPNSVSTNLGSTVKLSCKRSTGNSGSNYVNWYQQYEGRSPTTMIYRDDKRPDGVPDRFSGSIDRSSNSALLTINNVQTEDEADYFCQSYSSGINIFGGGTKLTVL
EC50 [1]: 530 pM
EC50 [2]: 120 pM

B7: anti-LRP-8 BGK-6B5-2 chimeric antibody (CL-105969) (antibody, V domains shown)
VH: B6 VH with T3S, K5Q, Y32F, A43S, T45K, V80A, T101A, Q111H
VL: B6 VL with S16N, S29I, Y40H, M48L, I67F, S95N, I100F
EC50 [1]: 510 pM
EC50 [2]: 150 pM

B8: anti-LRP-8 BGK-7F7 chimeric antibody (CL-105960) (antibody, V domains shown)
VH: B6 VH with M34L, A43S, T45K, D58A, V80A, T85P, T94R
VL: B6 VL with G27A, S29I, Y40H, M48L, K54R
EC50 [1]: 350 pM
EC50 [2]: 110 pM

B9: anti-LRP-8 ML199-11H1.5B2 murine antibody (muFc) (antibody, V domains shown)
VH: EVQLVESGGDLVKPGGSLKLSCAASRFTFSNYGMSWVRQTPDKRLEWVATISSGGRYTYYPDSVKGRFTISRDNAKNTLYLQMSSLRSEDTAMYYCARDYLYAMDYWGQGTSVTVSS
VL: DVVMTQTPLSLPVSLGDQASISCRSSQSLVYSNGNTYLHWYLQKPGQSPKVLMYKVSNRFSGVSDRFSGSGSGTDFTLKISRVEAEDLGVYFCSQSTHVPLTFGAGTKLELK
notes: Mouse Fc form (muFc); also called ML199-11H1-5B2 muFc; anti-LRP-8,11H1.5B2
Endocytosis, fold over IgG control [7]: 1.7 fold
Transcytosis, fold over IgG control [7]: 2 fold
fold over mIgG control [8]: 15.1 fold
EC50 [9]: 400 pM
fold over mIgG control [10]: 7 fold

B10: anti-LRP-8 ML201-8F3.3D7 murine antibody (muFc) (antibody, V domains shown)
VH: B9 VH with Y32F
VL: B9 VL
notes: Mouse Fc form; also called ML201-8F3-3D7 muFc; CL-33866
Endocytosis, fold over IgG control [7]: 1.6 fold
Transcytosis, fold over IgG control [7]: 1.08 fold
fold over mIgG control [8]: 13.6 fold
fold over mIgG control [10]: 5.2 fold

B16: anti-LRP-8 ML201-2B4.2B1.2H10 murine antibody (muFc) (antibody, V domains shown)
VH: DVKLVASGGGLVKPGGSLKLSCAASGFTLSRYAMSWVRQTPEKRLEWVAYIRNGGDYIYYADTVKGRFTISRDNARNTLYLQMSSLKSEDTAMYYCTREGSYYNFDYWGQGTTLTVSS
VL: DVLMTQTPLSLPVSLGDQASISCRSSQSIVHSNGNTYLEWYLQKPGQSPNLLIFKVSNRFSGVPDRFIGSGSGTDFTLKISRVEAEDLGVYYCFQGSHVPWTFGGGTKLEIK
notes: Mouse Fc form; also called ML201-2B4.2B1.2H10 muFc; CL-33867
Endocytosis, fold over IgG control [7]: 1.8 fold
Transcytosis, fold over IgG control [7]: 1.44 fold
fold over mIgG control [8]: 14.2 fold
fold over mIgG control [10]: 2.8 fold

Second part, the binder after the results:

OD450 [5]: 0.1 OD450
FACS (ratio +/-) [6]: 12.6 ratio
B5: anti-LRP-8 antibody CL-135359 (antibody, V domains shown)
VH: EVQLVQSGGGLVQPGGSLRLSCAASGFTFSSYAMSWVRQAPGKGLEWVSVISCSGGTTYYADSVKGRFTISRDNSKNTLYLQMNSLRAEDTAVYYCARNGGQFDLWGQGTLVTVSS
VL: B4 VL with S28G, G30C, S31T, I93N

EC50 [2]: 160 pM
B11: chimeric anti-LRP-8 ML201-8F3.3D7 antibody (antibody, V domains shown)
VH: B9 VH with Y32F
VL: B9 VL
notes: also called ML201.8F3.3D7 hFc; CL-33866

EC50 [1]: 250 pM
fold over isotype control [11]: 0.87 fold
fold over isotype control [12]: 0.41 fold
fold over isotype control [13]: 1.02 fold
EC50 [2]: 110 pM
B12: anti-LRP-8 BGK.6E3.F4 [r/m IgG2a/K] (antibody, V domains shown)
VH: EVQLVESGGGLVQPGKSLKLSCAASGFTFSDYNMAWVRQAPKKGLEWVATIMYDGSRTFYRDSVKGRYTFSRDNAKSTLYLQMDSLRSEDTATYYCATGRNWFAYWGQGTLVTVSS
VL: DIIMTQSPSSLAVSAGETVTINCKSSQSLLSSGKQKNYLAWYQQKPGQSPKLLIYLASTRESGVPDRFIGSGSGTDFTLTISSMQAEDLAIYYCQQHYDTPLTFGSGTKLEIK
notes: Rat variable domains on mouse IgG2a/kappa

EC50 [1]: 770 pM
fold over isotype control [11]: 28.2 fold
fold over isotype control [12]: 5.85 fold
fold over isotype control [13]: 30.2 fold
EC50 [2]: 240 pM
B13: anti-LRP-8 BGK.5D10.E4 [r/m IgG2a/K] (antibody, V domains shown)
VH: QVQLRETGPDLVQPTQTLSLTCTVSGFSLTNYPVQWVRQPPGSGLEWLGIMWPSGAADFNPALKSRLSISRDTSKSQFFLRMDNLQTDDTAIYFCARGRGYSSPYAMDAWGQGTSVTVSS
VL: DIQMTQSPASLSASLGETVSIECLASEDIYNNLAWYQQKPGKSPHLLIHFTSNLQDGVPSRFSGSGSGTQYSLKINSLESEDGATYFCLQDSEYPLTFGSGTKLEIK
notes: as for B12

EC50 [1]: 310 pM
fold over isotype control [11]: 13.7 fold
fold over isotype control [12]: 5.16 fold
fold over isotype control [13]: 13.8 fold
EC50 [2]: 100 pM
B14: anti-LRP-8 BGK.2C8.E6.D3 [r/m IgG2a/K] (antibody, V domains shown)
VH: QVTLKESGPGILQPSQTLSLTCTFSGFSLNTYGMGVGWVRQPSGKGLEWLANIWWDDDKFYNPSLKNRLTVSKDTSNNQAFLRITNGDTADTATYFCARILGEDIGGALDAWGQGTSVTVSS
VL: DTVLTQSPALAVSPGERVSISCRASEGVNSYMHWYQQNPGQQSKLLIYRTSNLASGVPARFGGSGSGTDFTLTIDPVEADDTATYFCQQSWNDPPTFGGGTKLELK

Endocytosis, fold over IgG control [7]: 2.6 fold
Transcytosis, fold over IgG control [7]: 1.53 fold
fold over mIgG control [8]: 17.3 fold
fold over mIgG control [10]: 1.2 fold
B15: anti-LRP-8 antibody ab58216 (mFc) (antibody, V domains shown)
VH: EVHLQQSGPEVVKPGASVKISCKASGYIISGYFLNWVKQSHGKSLEWVGRINPYSGDTFFNQKFKGKATLTVDKSSNTAHMELRSLTSEDSAVFYCAREDIGRFAYWGQGTLVTVSA
VL: B16 VL with S28T, N50K, F54Y, I68S, V99A, W101P
notes: Mouse Fc form
